According to patent US20180244725:
Numbering of substitutions follows the chain as printed. In names and notes the source's numbering stands.

Target: T1, R5 peptide
T1 chain: SSKKSGSYSGSKGSKRRIL

B1: OGT (protein)
chain: ASSVGNVADSTEPTKRMLSFQGLAELAHREYQAGDFEAAERHCMQLWRQEPDNTGVLLLLSSIHFQCRRLDRSAHFSTLAIKQNPLLAEAYSNLGNVYKERGQLQEAIEHYRHALRLKPDFIDGYINLAAALVAAGDMEGAVQAYVSALQYNPDLYCVRSDLGNLLKALGRLEEAKACYLKAIETQPNFAVAWSNLGCVFNAQGEIWLAIHHFEKAVTLDPNFLDAYINLGNVLKEARIFDRAVAAYLRALSLSPNHAVVHGNLACVYYEQGLIDLAIDTYRRAIELQPHFPDAYCNLANALKEKGSVAEAEDCYNTALRLCPTHADSLNNLANIKREQGNIEEAVRLYRKALEVFPEFAAAHSNLASVLQQQGKLQEALMHYKEAIRISPTFADAYSNMGNTLKEMQDVQGALQCYTRAIQINPAFADAHSNLASIHKDSGNIPEAIASYRTALKLKPDFPDAYCNLAHCLQIVCDWTDYDERMKKLVSIVADQLEKNRLPSVHPHHSMLYPLSHGFRKAIAERHGNLCLDKINVLHKPPYEHPKDLKLSDGRLRVGYVSSDFGNHPTSHLMQSIPGMHNPDKFEVFCYALSPDDGTNFRVKVMAEANHFIDLSQIPCNGKAADRIHQDGIHILVNMNGYTKGARNELFALRPAPIQAMWLGYPGTSGALFMDYIITDQETSPAEVAEQYSEKLAYMPHTFFIGDHANMFPHLKKKAVIDFKSNGHIYDNRIVLNGIDLKAFLDSLPDVKIVKMKCPDGGDNADSSNTALNMPVIPMNTIAEAVIEMINRGQIQITINGFSISNGLATTQINNKAATGEEVPRTIIVTTRSQYGLPEDAIVYCNFNQLYKIDPSTLQMWANILKRVPNSVLWLLRFPAVGEPNIQQYAQNMGLPQNRIIFSPVAPKEEHVRRGQLADVCLDTPLCNGHTTGMDVLWAGTPMVTMPGETLASRVAASQLTCLGCLELIAKNRQEYEDIAVKLGTDLEYLKKVRGKVWKQRISSPLFNTKQYTMELERLYLQMWEHYAAGNKPDHMIKPVEVTESA
enzymatic modification of R5 (Glycosylation): resulted in no modifications

B2: POMT1 (protein)
chain: MWGFLKRPVVVTADINLSLVALTGMGLLSRLWRLTYPRAVVFDEVYYGQYISFYMKQIFFLDDSGPPFGHMVLALGGYLGGFDGNFLWNRIGAEYSSNVPVWSLRLLPALAGALSVPMAYQIVLELHFSHCAAMGAALLMLIENALITQSRLMLLESVLIFFNLLAVLSYLKFFNCQKHSPFSLSWWFWLTLTGVACSCAVGIKYMGVFTYVLVLGVAAVHAWHLLGDQTLSNVGADVQCCMRPACMGQMQMSQGVCVFCHLLARAVALLVIPVVLYLLFFYVHLILVFRSGPHDQIMSSAFQASLEGGLARITQGQPLEVAFGSQVTLRNVFGKPVPCWLHSHQDTYPMIYENGRGSSHQQQVTCYPFKDVNNWWIVKDPRRHQLVVSSPPRPVRHGDMVQLVHGMTTRSLNTHDVAAPLSPHSQEVSCYIDYNISMPAQNLWRLEIVNRGSDTDVWKTILSEVRFVHVNTSAVLKLSGAHLPDWGYRQLEIVGEKLSRGYHGSTVWNVEEHRYGASQEQRERERELHSPAQVDVSRNLSFMARFSELQWRMLALRSDDSEHKYSSSPLEWVTLDTNIAYWLHPRTSAQIHLLGNIVIWVSGSLALAIYALLSLWYLLRRRRNVHDLPQDAWLRWVLAGALCAGGWAVNYLPFFLMEKTLFLYHYLPALTFQILLLPVVLQHISDHLCRSQLQRSIFSALVVAWYSSACHVSNTLRPLTYGDKSLSPHELKALRWKDSWDILIRKH
enzymatic modification of R5 (Glycosylation): resulted in no modifications

B3: NMT2 (protein)
chain: MAEDSESAASQQSLELDDQDTCGIDGDNEEETEHAKGSPGGYLGAKKKKKKQKRKKEKPNSGGTKSDSASDSQEIKIQQPSKNPSVPMQKLQDIQRAMELLSACQGPARNIDEAAKHRYQFWDTQPVPKLDEVITSHGAIEPDKDNVRQEPYSLPQGFMWDTLDLSDAEVLKELYTLLNENYVEDDDNMFRFDYSPEFLLWALRPPGWLLQWHCGVRVSSNKKLVGFISAIPANIRIYDSVKKMVEINFLCVHKKLRSKRVAPVLIREITRRVNLEGIFQAVYTAGVVLPKPIATCRYWHRSLNPRKLVEVKFSHLSRNMTLQRTMKLYRLPDVTKTSGLRPMEPKDIKSVRELINTYLKQFHLAPVMDEEEVAHWFLPREHIIDTFVVESPNGKLTDFLSFYTLPSTVMHHPAHKSLKAAYSFYNIHTETPLLDLMSDALILAKSKGFDVFNALDLMENKTFLEKLKFGIGDGNLQYYLYNWRCPGTDSEKVGLVLQ
enzymatic modification of R5 (Lipidation): resulted in no modifications

B4: BRSK2 (protein)
chain: MWPPDPDPDPDPEPAGGSRPGPAVPGLRALLPARAFLCSLKGRLLLAESGLSFITFICYVASSASAFLTAPLLEFLLALYFLFADAMQLNDKWQGLCWPMMDFLRCVTAALIYFAISITAIAKYSDGASKAAGVFGFFATIVFATDFYLIFNDVAKFLKQGDSADETTAHKTEEENSDSDSD
enzymatic modification of R5 (Phosphorylation): resulted in no modifications

B5: Thermospermine synthase ACL5 (protein)
chain: MGEAVEVMFGNGFPEIHKATSPTQTLHSNQQDCHWYEETIDDDLKWSFALNSVLHQGTSEYQDIALLDTKRFGKVLVIDGKMQSAERDEFIYHECLIHPALLFHPNPKTVFIMGGGEGSAAREILKHTTIEKVVMCDIDQEVVDFCRRFLTVNSDAFCNKKLELVIKDAKAELEKREEKFDIIVGDLADPVEGGPCYQLYTKSFYQNILKPKLSPNGIFVTQAGPAGIFTHKEVFTSIYNTMKQVFKYVKAYTAHVPSFADTWGWVMASDHEFDVEVDEMDRRIEERVNGELMYLNAPSFVSAATLNKTISLALEKETEVYSEENARFIHGHGVAYRHI
propylamination of R5 (LC-MS time course): the incorporation of one thermospermine molecule into R5

B6: LplA (protein)
chain: STLRLLISDSYDPWFNLAVEECIFRQMPATQRVLFLWRNADTVVIGRAQNPWKECNTRRMEEDNVRLARRSSGGGAVFHDLGNTCFTFMAGKPEYDKTISTSIVLNALNALGVSAEASGRNDLVVKTVEGDRKVSGSAYRETKDRGFHHGTLLLNADLSRLANYLNPDKKKLAAKGITSVRSRVTNLTELLPGITHEQVCEAITEAFFAHYGERVEAEIISPNKTPDLPNFAETFARQSSWEWNFGQAPAFSHLLDERFTWGGVELHFDVEKGHITRAQVFTDSLNPAPLEALAGRLQGCLYRADMLQQECEALLVDFPEQEKELRELSAWMAGAVR
enzymatic modification of R5 (Lipidation): resulted in no modifications

B7: lysine methyltransferase SETD7 (SET7/9) (protein)
chain: MDSDDEMVEEAVEGHLDDDGLPHGFCTVTYSSTDRFEGNFVHGEKNGRGKFFFFDGSTLEGYYVDDALQGQGVYTYEDGGVLQGTYVDGELNGPAQEYDTDGRLIFKGQYKDNIRHGVCWIYYPDGGSLVGEVNEDGEMTGEKIAYVYPDERTALYGKFIDGEMIEGKLATLMSTEEGRPHFELMPGNSVYHFDKSTSSCISTNALLPDPYESERVYVAESLISSAGEGLFSKVAVGPNTVMSFYNGVRITHQEVDSRDWALNGNTLSLDEETVIDVPEPYNHVSKYCASLGHKANHSFTPNCIYDMFVHPRFGPIKCIRTLRAVEADEELTVAYGYDHSPPGKSGPEAPEWYQVELKAFQATQQK
methylation of R5 (LC-MS time course): A time course showing the incorporation of zero to 16 methyl groups into R5

B8: SET7/9 Y305F (protein)
chain: B7 chain with Y305F
methylation of R5 (LC-MS time course): A time course showing the incorporation of zero to 16 methyl groups into R5

B9: vopS (protein)
chain: GKEYTINAATQEFTRANPTSGAVARFFEATGKLFREGSTQSVAKAITKAVFDNEQGQAQRLQTSSSVEHGQMLFKDANLKTPSDVLNAFAKLDSKMVKSHAAELSQLAERAMTEVMLETDSGKNLKALIGDDAVKSLAVRVVKDYGGGVAAAQKNPEVRINQMQAVFDMEVMHLKAAQRHIEGLASTDLNQGVYAEGLPEDAFNKAGVTNNVERAAAWIINASNSKGNDAENITSLLKEYATNGKDLLNMDNLKELHARLVPNVERDYRGPNISGGTLPSSIGGEGMLKQHIEGFLKENPVADKDLGKHLFAGVIGYHGFTDGNGRMGRMLYAIAELRNDSFNPLAMNAENSLHGIK
enzymatic modification of R5 (Adenylylation): resulted in no modifications

B10: deoxyhypusine synthase (DHPS) (protein)
chain: MEGSLEREAPAGALAAVLKHSSTLPPESTQVRGYDFNRGVNYRALLEAFGTTGFQATNFGRAVQQVNAMIEKKLEPLSQDEDQHADLTQSRRPLTSCTIFLGYTSNLISSGIRETIRYLVQHNMVDVLVTTAGGVEEDLIKCLAPTYLGEFSLRGKELRENGINRIGNLLVPNENYCKFEDWLMPILDQMVMEQNTEGVKWTPSKMIARLGKEINNPESVYYWAQKNHIPVFSPALTDGSLGDMIFFHSYKNPGLVLDIVEDLRLINTQAIFAKCTGMIILGGGVVKHHIANANLMRNGADYAVYINTAQEFDGSDSGARPDEAVSWGKIRVDAQPVKVYADASLVFPLLVAETFAQKMDAFMHEKNED
hypusination of R5 (LC-MS time course): A time course showing the conversion of two lysine to hypusine residues was determined by LC-MS

B11: LipB (protein)
chain: MYQDKILVRQLGLQPYEPISQAMHEFTDTRDDSTLDEIWLVEHYPVFTQGQAGKAEHILMPGDIPVIQSDRGGQVTYHGPGQQVMYVLLNLKRRKLGVRELVTLLEQTVVNTLAELGIEAHPRADAPGVYVGEKKICSLGLRIRRGCSFHGLALNVNMDLSPFLRINPCGYAGMEMAKISQWKPEATTNNIAPRLLENILALLNNPDFEYITA
enzymatic modification of R5 (Lipidation): resulted in no modifications

B12: GALNT1 (protein)
chain: GLPAGDVLEPVQKPHEGPGEMGKPVVIPKEDQEKMKEMFKINQFNLMASEMIALNRSLPDVRLEGCKTKVYPDNLPTTSVVIVFHNEAWSTLLRTVHSVINRSPRHMIEEIVLVDDASERDFLKRPLESYVKKLKVPVHVIRMEQRSGLIRARLKGAAVSKGQVITFLDAHCECTVGWLEPLLARIKHDRRTVVCPIIDVISDDTFEYMAGSDMTYGGFNWKLNFRWYPVPQREMDRRKGDRTLPVRTPTMAGGLFSIDRDYFQEIGTYDAGMDIWGGENLEISFRIWQCGGTLEIVTCSHVGHVFRKATPYTFPGGTGQIINKNNRRLAEVWMDEFKNFFYIISPGVTKVDYGDISSRVGLRHKLQCKPFSWYLENIYPDSQIPRHYFSLGEIRNVETNQCLDNMARKENEKVGIFNCHGMGGNQVFSYTANKEIRTDDLCLDVSKLNGPVTMLKCHHLKGNQLWEYDPVKLTLQHVNSNQCLDKATEEDSQVPSIRDCNGSRSQQWLLRNVTLPEIF
enzymatic modification of R5 (Glycosylation): resulted in no modifications

B13: deoxyhypusine hydroxulase (DOHH) (protein)
chain: MVTEQEVDAIGQTLVDPKQPLQARFRALFTLRGLGGPGAIAWISQAFDDDSALLKHELAYCLGQMQDARAIPMLVDVLQDTRQEPMVRHEAGEALGAIGDPEVLEILKQYSSDPVIEVAETCQLAVRRLEWLQQHGGEPAAGPYLSVDPAPPAEERDVGRLREALLDESRPLFERYRAMFALRNAGGEEAALALAEGLHCGSALFRHEVGYVLGQLQHEAAVPQLAAALARCTENPMVRHECAEALGAIARPACLAALQAHADDPERVVRESCEVALDMYEHETGRAFQYADGLEQLRGAPS
hypusination of R5 (LC-MS time course): A time course showing the conversion of two lysine to hypusine residues was determined by LC-MS
